Results: the supplement of paper PMC9112550, “Optimization of the antimicrobial peptide Bac7 by deep mutational scanning” (BMC Biology, 2022)

Tested on: Escherichia coli TOP10
Experiment: shrunken log2 fold change of peptide-encoding DNA abundance (4.5 h post-induction vs induction); higher = less antimicrobial activity (less host growth inhibition)
Conditions: time post-induction: 4.5 h; library: site-saturation at positions 5, 18, 19, 20
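Further: peptides expressed intracellularly from a pBAD plasmid library in pooled LB shake-flask culture, induced with 0.3% L-arabinose, DNA abundance read by NGS, three biological replicates, DESeq2 with apeglm shrinkage.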

Sequence	shrunken log2 fold change
RRIRSRPPRLPRPRPRPVWIPRP	0.0104
RRIRSRPPRLPRPRPRPWDAPRP	0.069
RRIRSRPPRLPRPRPRPWEPPRP	-0.029
RRIRSRPPRLPRPRPRPWFNPRP	-0.227
RRIRSRPPRLPRPRPRPWIDPRP	-0.615
RRIRSRPPRLPRPRPRPWKFPRP	-0.176
RRIRSRPPRLPRPRPRPWMQPRP	-0.0251
RRIRSRPPRLPRPRPRPWMWPRP	-0.0985
RRIRSRPPRLPRPRPRPWMYPRP	-0.0974
RRIRSRPPRLPRPRPRPWPQPRP	0.0548
RRIRSRPPRLPRPRPRPWTFPRP	-0.199
RRIRSRPPRLPRPRPRPWVQPRP	0.127
RRIRSRPPRLPRPRPRPWWPPRP	0.0626
RRIRSRPPRLPRPRPRPWWSPRP	-0.237
RRIRSRPPRLPRPRPRPWYSPRP	-0.257
RRIRSRPPRLPRPRPRPWYYPRP	-0.518
RRIRSRPPRLPRPRPRPYAFPRP	-0.487
RRIRSRPPRLPRPRPRPYAHPRP	-0.131
RRIRSRPPRLPRPRPRPYASPRP	0.0607
RRIRSRPPRLPRPRPRPYCYPRP	-0.0398
RRIRSRPPRLPRPRPRPYDCPRP	-0.0167
RRIRSRPPRLPRPRPRPYDHPRP	-0.795
RRIRSRPPRLPRPRPRPYECPRP	-0.356
RRIRSRPPRLPRPRPRPYEIPRP	-0.0474
RRIRSRPPRLPRPRPRPYEMPRP	-0.234

Sequence	shrunken log2 fold change
RRIRSRPPRLPRPRPRPYEPPRP	-0.619
RRIRSRPPRLPRPRPRPYFCPRP	-0.354
RRIRSRPPRLPRPRPRPYFMPRP	-0.848
RRIRSRPPRLPRPRPRPYHNPRP	-1.22
RRIRSRPPRLPRPRPRPYHQPRP	-0.203
RRIRSRPPRLPRPRPRPYHYPRP	-0.527
RRIRSRPPRLPRPRPRPYIVPRP	-0.646
RRIRSRPPRLPRPRPRPYIYPRP	-0.778
RRIRSRPPRLPRPRPRPYKWPRP	-0.18
RRIRSRPPRLPRPRPRPYLNPRP	-0.564
RRIRSRPPRLPRPRPRPYLYPRP	-0.065
RRIRSRPPRLPRPRPRPYMTPRP	-0.586
RRIRSRPPRLPRPRPRPYNDPRP	-0.41
RRIRSRPPRLPRPRPRPYNMPRP	-0.817
RRIRSRPPRLPRPRPRPYNYPRP	-0.494
RRIRSRPPRLPRPRPRPYPGPRP	-0.199
RRIRSRPPRLPRPRPRPYPNPRP	0.00334
RRIRSRPPRLPRPRPRPYPRPRP	-0.45
RRIRSRPPRLPRPRPRPYSAPRP	-0.0105
RRIRSRPPRLPRPRPRPYSKPRP	-0.994
RRIRSRPPRLPRPRPRPYTIPRP	-0.808
RRIRSRPPRLPRPRPRPYTQPRP	-0.184
RRIRSRPPRLPRPRPRPYYFPRP	-0.664
RRIRTRPPRLPRPRPRPACQPRP	0.0771
RRIRTRPPRLPRPRPRPACYPRP	-0.0845

Sequence	shrunken log2 fold change
RRIRTRPPRLPRPRPRPADRPRP	-0.108
RRIRTRPPRLPRPRPRPADVPRP	-0.391
RRIRTRPPRLPRPRPRPAEGPRP	0.164
RRIRTRPPRLPRPRPRPAFPPRP	0.0262
RRIRTRPPRLPRPRPRPAGSPRP	-0.000597
RRIRTRPPRLPRPRPRPAHCPRP	-0.168
RRIRTRPPRLPRPRPRPAHIPRP	0.0726
RRIRTRPPRLPRPRPRPAHSPRP	0.0608
RRIRTRPPRLPRPRPRPAILPRP	-0.157
RRIRTRPPRLPRPRPRPAIQPRP	-0.216
RRIRTRPPRLPRPRPRPAKLPRP	0.108
RRIRTRPPRLPRPRPRPAKWPRP	-0.000772
RRIRTRPPRLPRPRPRPALCPRP	-0.0776
RRIRTRPPRLPRPRPRPAMAPRP	0.392
RRIRTRPPRLPRPRPRPANKPRP	-0.216
RRIRTRPPRLPRPRPRPAPKPRP	0.371
RRIRTRPPRLPRPRPRPAQSPRP	0.343
RRIRTRPPRLPRPRPRPASPPRP	0.209
RRIRTRPPRLPRPRPRPAVHPRP	-0.0614
RRIRTRPPRLPRPRPRPAWCPRP	0.0035
RRIRTRPPRLPRPRPRPCALPRP	-0.0236
RRIRTRPPRLPRPRPRPCAYPRP	-0.164
RRIRTRPPRLPRPRPRPCCIPRP	-0.155
RRIRTRPPRLPRPRPRPCCLPRP	0.096
RRIRTRPPRLPRPRPRPCDYPRP	-0.0715

Sequence	shrunken log2 fold change
RRIRTRPPRLPRPRPRPCECPRP	0.0538
RRIRTRPPRLPRPRPRPCEMPRP	0.0671
RRIRTRPPRLPRPRPRPCGNPRP	-0.0693
RRIRTRPPRLPRPRPRPCGPPRP	-0.0329
RRIRTRPPRLPRPRPRPCGTPRP	-0.0194
RRIRTRPPRLPRPRPRPCHKPRP	0.014
RRIRTRPPRLPRPRPRPCHYPRP	-0.253
RRIRTRPPRLPRPRPRPCIFPRP	-0.233
RRIRTRPPRLPRPRPRPCKTPRP	-0.0173
RRIRTRPPRLPRPRPRPCLDPRP	-0.405
RRIRTRPPRLPRPRPRPCLKPRP	-0.0017
RRIRTRPPRLPRPRPRPCLVPRP	-0.175
RRIRTRPPRLPRPRPRPCNIPRP	0.048
RRIRTRPPRLPRPRPRPCNMPRP	-0.154
RRIRTRPPRLPRPRPRPCPQPRP	-0.312
RRIRTRPPRLPRPRPRPCQCPRP	-0.195
RRIRTRPPRLPRPRPRPCQHPRP	0.0626
RRIRTRPPRLPRPRPRPCRDPRP	-0.118
RRIRTRPPRLPRPRPRPCSLPRP	-0.128
RRIRTRPPRLPRPRPRPCTCPRP	-0.00101
RRIRTRPPRLPRPRPRPCVRPRP	0.116
RRIRTRPPRLPRPRPRPCVTPRP	-0.208
RRIRTRPPRLPRPRPRPCYGPRP	-0.146
RRIRTRPPRLPRPRPRPDACPRP	-0.0191
RRIRTRPPRLPRPRPRPDCNPRP	0.0556

Sequence	shrunken log2 fold change
RRIRTRPPRLPRPRPRPDDDPRP	-0.00136
RRIRTRPPRLPRPRPRPDDYPRP	-0.111
RRIRTRPPRLPRPRPRPDEAPRP	-0.0661
RRIRTRPPRLPRPRPRPDFIPRP	-0.547
RRIRTRPPRLPRPRPRPDFPPRP	-0.178
RRIRTRPPRLPRPRPRPDGHPRP	-0.102
RRIRTRPPRLPRPRPRPDIRPRP	0.0296
RRIRTRPPRLPRPRPRPDKAPRP	-0.0271
RRIRTRPPRLPRPRPRPDLCPRP	0.144
RRIRTRPPRLPRPRPRPDLGPRP	-0.117
RRIRTRPPRLPRPRPRPDLHPRP	-0.174
RRIRTRPPRLPRPRPRPDLNPRP	0.0685
RRIRTRPPRLPRPRPRPDPIPRP	0.03
RRIRTRPPRLPRPRPRPDPTPRP	-0.0451
RRIRTRPPRLPRPRPRPDPWPRP	0.0451
RRIRTRPPRLPRPRPRPDQFPRP	-0.00188
RRIRTRPPRLPRPRPRPDRAPRP	-0.438
RRIRTRPPRLPRPRPRPDRGPRP	-0.252
RRIRTRPPRLPRPRPRPDRWPRP	0.0353
RRIRTRPPRLPRPRPRPDSDPRP	-0.65
RRIRTRPPRLPRPRPRPDSEPRP	-0.182
RRIRTRPPRLPRPRPRPDSFPRP	0.033
RRIRTRPPRLPRPRPRPDTHPRP	-0.424
RRIRTRPPRLPRPRPRPDTRPRP	-0.186
RRIRTRPPRLPRPRPRPDVGPRP	-0.0549

Sequence	shrunken log2 fold change
RRIRTRPPRLPRPRPRPDWDPRP	0.223
RRIRTRPPRLPRPRPRPEDEPRP	0.0995
RRIRTRPPRLPRPRPRPEEEPRP	0.385
RRIRTRPPRLPRPRPRPEEFPRP	-0.0783
RRIRTRPPRLPRPRPRPEFTPRP	0.016
RRIRTRPPRLPRPRPRPEIFPRP	-0.303
RRIRTRPPRLPRPRPRPELRPRP	0.225
RRIRTRPPRLPRPRPRPELVPRP	0.0224
RRIRTRPPRLPRPRPRPELWPRP	-0.142
RRIRTRPPRLPRPRPRPEMVPRP	0.134
RRIRTRPPRLPRPRPRPEPAPRP	0.763
RRIRTRPPRLPRPRPRPEPCPRP	0.0427
RRIRTRPPRLPRPRPRPEPQPRP	0.927
RRIRTRPPRLPRPRPRPEPTPRP	0.347
RRIRTRPPRLPRPRPRPEPVPRP	0.272
RRIRTRPPRLPRPRPRPEQDPRP	0.0235
RRIRTRPPRLPRPRPRPEQYPRP	-0.0335
RRIRTRPPRLPRPRPRPESMPRP	0.0954
RRIRTRPPRLPRPRPRPESVPRP	-0.0229
RRIRTRPPRLPRPRPRPEVQPRP	0.0183
RRIRTRPPRLPRPRPRPEWAPRP	0.213
RRIRTRPPRLPRPRPRPEYTPRP	-0.052
RRIRTRPPRLPRPRPRPEYVPRP	0.0172
RRIRTRPPRLPRPRPRPFEAPRP	0.0368
RRIRTRPPRLPRPRPRPFEPPRP	-0.231
